From US5739278A, “Compositions for protein tyrosine phosphatases” (University of Washington, priority 1995, dated 1998)
Where no end group is shown, it is not given here. [ ]: non-standard residue; d: D form. pY = N[C@@H](Cc1ccc(OP(=O)(O)O)cc1)C(=O)O

Experiments:
PTP1B = target: T1, PTP1B (Homo sapiens, UniProt P18031); experiment: Phosphatase assay with ENDY(P)INASL as substrate; assay type: biochemical; conditions: non-linear regression of substrate saturation curves, mean of two experiments
T1 construct: The 37 kDa form of PTP1B; from tissue; host or cells: placenta
T1 sequence (P18031 1-321 limits assumed): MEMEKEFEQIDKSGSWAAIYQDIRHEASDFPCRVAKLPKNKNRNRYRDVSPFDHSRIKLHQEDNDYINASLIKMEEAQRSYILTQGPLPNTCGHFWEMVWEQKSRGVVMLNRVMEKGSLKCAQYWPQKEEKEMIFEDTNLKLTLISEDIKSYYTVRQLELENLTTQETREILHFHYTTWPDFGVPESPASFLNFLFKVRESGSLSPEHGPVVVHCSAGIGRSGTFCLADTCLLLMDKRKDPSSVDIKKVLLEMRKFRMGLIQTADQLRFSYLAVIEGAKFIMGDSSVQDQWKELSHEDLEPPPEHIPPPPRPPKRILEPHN
Outline: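 Enzyme, phosphopeptide and effectors are combined in buffer M6, then incubated 10 minutes at 30° C. Acid-washed charcoal in HCl, pyrophosphate and phosphate stops the reaction. After centrifugation, supernatant radioactivity is measured; enzymes were from Sf9 cells (TC.PTP, RPTPα), placenta (PTP1B, 37 kDa) or spleen (CD45).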

TC.PTP = target: T2, TC.PTP (Homo sapiens, UniProt P17706); experiment: Determination of TC.PTP activity in immunoprecipitates; assay type: biochemical; conditions: for % Dephosphorylation: 100% = total bound radioactivity in the assay
T2 construct: made in house; host or cells: Sf9 cells (baculovirus)
T2 sequence (P17706 1-415): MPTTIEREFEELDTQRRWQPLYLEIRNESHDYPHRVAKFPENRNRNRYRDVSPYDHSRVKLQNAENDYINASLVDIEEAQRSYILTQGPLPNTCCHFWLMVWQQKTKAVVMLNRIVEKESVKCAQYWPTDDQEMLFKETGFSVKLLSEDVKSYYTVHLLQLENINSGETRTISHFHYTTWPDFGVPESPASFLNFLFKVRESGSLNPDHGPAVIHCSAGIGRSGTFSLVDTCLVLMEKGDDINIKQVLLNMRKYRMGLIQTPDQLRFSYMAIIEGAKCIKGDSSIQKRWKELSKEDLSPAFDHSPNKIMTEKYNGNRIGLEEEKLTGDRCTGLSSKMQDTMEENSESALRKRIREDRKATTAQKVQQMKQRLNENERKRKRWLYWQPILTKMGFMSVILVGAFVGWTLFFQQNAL
Experimental: Immunoprecipitations were carded out in 500 μl buffer AT containing phosphatase (in the amount indicated in the tables below), 3 μl rabbit antisera #6228 raised against the baculovirus expressed TCΔC11.PTP (Zander et al., Biochemistry 30: 6964-6970, 1991) and 20 μl protein A agarose beads. The mixture was rotated overnight at 4° C. The beads were washed three times with HNTG and tested for PTP activity. No PTP activity was detected in controls without antisera.
Phosphatase assays with ENDY(P)INASL were performed in buffer M6. Aliquots of 30 μl or 60 μl containing the phosphopeptide, the phosphatase (-beads) and effectors were incubated for 10 minutes at 30° C. The reaction was stopped by adding 200 μl of a suspension of 10% activated, acid-washed Norit A charcoal (v/v) in 0.9N HCl, 0.1M pyrophosphate and 2 mM NaH2 PO4 (according to Streuli et al., Proc. Natl. Acad. Sci. USA 86: 8698-8702, 1989). The mixture was cleared by 10-minute centrifugation and the radioactivity of 150 μl of the supernate was determined. Assays with MBP and RCML were performed as described in Tonks et al., J. Biol. Chem. 263: 6722-6730, 1988. Protein concentration was determined with BSA as standard (Bradford, Anal. Biochem. 72: 248-254, 1976).

Substance: ENDY(P)INASL: ENDYINASL phosphorylated on its tyrosine residue (32P), used as PTP substrate (END[pY]INASL; also: phosphate 32P-labelled)
- Km (PTP1B): 0.8 ± 0.45 µM
- Lowest amount of immunoprecipitated phosphatase that could be detected with the substrate (TC.PTP; TC.PTP immunoprecipitates on beads): 1 ng
- % Dephosphorylation (TC.PTP; immunoprecipitated TC.PTP 0.3 ng): 0%
- % Dephosphorylation (TC.PTP; immunoprecipitated TC.PTP 1 ng): 1.8%
- % Dephosphorylation (TC.PTP; immunoprecipitated TC.PTP 3 ng): 3.9%
- % Dephosphorylation (TC.PTP; immunoprecipitated TC.PTP 10 ng): 10.8%
- % Dephosphorylation (TC.PTP; immunoprecipitated TC.PTP 30 ng): 17.5%
- % Dephosphorylation (TC.PTP; immunoprecipitated TC.PTP 100 ng): 28.1%
